Values joined by “and” are separate entries in the source; they are usually repeats but may differ in a detail not shown here. Identical values can stand only once. Like-named read-outs stand apart in the source and are kept apart here.
Assays:
Assay in all cases: mass photometry
[1] = target: At2-CysPRXA F84R variant (Arabidopsis thaliana)
[2] = target: At2-CysPRXA C54S variant (Arabidopsis thaliana)
mass photometry [3] = target: the molecule itself
mass photometry [4] = target: the molecule itself; remark: listed apart in the source
mass photometry [5] = target: the molecule itself; remark: listed apart in the source
mass photometry [6] = target: the molecule itself; remark: listed apart in the source
mass photometry [7] = target: the molecule itself; remark: listed apart in the source

Molecule: At2-CysPRXA F84R variant (enzyme)
- stoichiometry N [1]: 2 and 4

Molecule: At2-CysPRXA C54S variant (enzyme)
- stoichiometry N [2]: 10

B1: human peroxiredoxin HsPRX1, reduced (enzyme, UniProt Q06830 1-199, looked up)
chain: MSSGNAKIGHPAPNFKATAVMPDGQFKDISLSDYKGKYVVFFFYPLDFTFVCPTEIIAFSDRAEEFKKLNCQVIGASVDSHFCHLAWVNTPKKQGGLGPMNIPLVSDPKRTIAQDYGVLKADEGISFRGLFIIDDKGILRQITVNDLPVGRSVDETLRLVQAFQFTDKHGEVCPAGWKPGSDTIKPDVQKSKEYFSKQK
- stoichiometry N (mass photometry [3]): 10

B2: human peroxiredoxin HsPRX3, reduced (enzyme, UniProt P30048 62-256, looked up)
chain: APAVTQHAPYFKGTAVVNGEFKDLSLDDFKGKYLVLFFYPLDFTFVCPTEIVAFSDKANEFHDVNCEVVAVSVDSHFSHLAWINTPRKNGGLGHMNIALLSDLTKQISRDYGVLLEGSGLALRGLFIIDPNGVIKHLSVNDLPVGRSVEETLRLVKAFQYVETHGEVCPANWTPDSPTIKPSPAASKEYFQKVNQ
- stoichiometry N (mass photometry [3]): 2
- stoichiometry N (mass photometry [4]): 40 and 20

B3: At2-CysPRXA, oxidized (H2O2-treated) (enzyme, Arabidopsis thaliana, UniProt Q96291 66-266, looked up)
chain: KAQADDLPLVGNKAPDFEAEAVFDQEFIKVKLSDYIGKKYVILFFYPLDFTFVCPTEITAFSDRHSEFEKLNTEVLGVSVDSVFSHLAWVQTDRKSGGLGDLNYPLISDVTKSISKSFGVLIHDQGIALRGLFIIDKEGVIQHSTINNLGIGRSVDETMRTLQALQYIQENPDEVCPAGWKPGEKSMKPDPKLSKEYFSAI
modifications: disulfide bond of the peroxidatic cysteine (CysP54) with the resolving cysteine (CysR176)
- stoichiometry N (mass photometry [5]): 2

B4: At2-CysPRXA, hyperoxidized (H2O2 plus DTT) (enzyme, Arabidopsis thaliana, UniProt Q96291 66-266, looked up)
chain: B3 chain
modifications: C54 thiol hyperoxidized to a sulfinic acid residue
- stoichiometry N (mass photometry [5]): 10

B5: Arabidopsis thaliana 2-Cysteine peroxiredoxin A (At2-CysPRXA), wildtype, reduced (enzyme, UniProt Q96291 66-266, looked up)
chain: B3 chain
- ratio of dimer units in the decameric fraction to those in the dimer fraction (mass photometry [6]): ~5 fold
- Kd (mass photometry [7]): < 50 nM
- stoichiometry N (mass photometry [7]): 20

B6: human peroxiredoxin HsPRX2, reduced (enzyme, UniProt P32119 1-198, looked up)
chain: MASGNARIGKPAPDFKATAVVDGAFKEVKLSDYKGKYVVLFFYPLDFTFVCPTEIIAFSNRAEDFRKLGCEVLGVSVDSQFTHLAWINTPRKEGGLGPLNIPLLADVTRRLSEDYGVLKTDEGIAYRGLFIIDGKGVLRQITVNDLPVGRSVDEALRLVQAFQYTDEHGEVCPAGWKPGSDTIKPNVDDSKEYFSKHN
- stoichiometry N (mass photometry [3]): 2
- stoichiometry N (mass photometry [4]): 20

From doi:10.1101/2021.01.30.428949 (bioRxiv, 2021)
